Where two headings read alike, the source gives them in different places.
Assays:
canine PRP = assay: ADP-induced platelet aggregation in canine PRP; format: cell-based; details: 20 μM ADP
Procedure: Column fractions obtained during purification were assayed for activity using fresh human platelet rich plasma (PRP) prepared from blood obtained from human volunteers who had had no medication for at least two weeks. Blood (36 ml) was drawn into 4 ml of 0.1 M citrate and centrifuged at 150×g for 20 minutes. The supernatant, PRP, was removed and the remaining blood was centrifuged at 10,000 RPM to obtain platelet poor plasma (PPP). Platelet counts were adjusted to 250,000 platelets/μl using a Coulter counter. A Helena four channel aggregometer was used to monitor platelet aggregation. Inhibition of ADP-induced platelet aggregation was monitored at 37° C. by adding venom fractions one minute prior to the addition of ADP (10-20 μM final concentration). […] Rabbit and canine PRP was prepared by the same procedure and used in the studies described below.
CN inhibited ADP-induced platelet aggregation in human, canine, and rabbit PRPs (FIG. 6). Empty circles represent human platelet rich plasma, solid circles represent canine PRP, and empty triangles represent rabbit PRP. Varying concentration of CN were preincubated for one minute with PRP prior to the addition of ADP.

[1] = system: human melanoma M24 met cells; assay: CN binding to human melanoma M24 met cells
Excerpt: The compositions of the present invention also have utility in inhibiting metastasis in melanoma, carcinoma and sarcoma patients. […] Thus, methods and compositions for preventing metastases in melanoma, carcinoma and sarcoma patients are also contemplated as within the scope of the present invention.

T24 cells [2] = assay: Adhesion of T24 cells to immobilized vitronectin; format: cell-based, human
Procedure: Individual wells of 96-well plates were coated at 4° C. overnight with 100 μl of vitronectin (1 μg/well). Excess proteins were washed off with three washes of phosphate buffered saline (PBS), followed by blocking with 1% bovine serum albumin (BSA) in PBS. Aliquots (100 μl) of cells (5×10^5 cells/ml) were incubated at room temperature for 20 minutes with antibodies or contortrostatin before being applied to the coated wells. Treated cells were allowed to adhere to the wells for 30 minutes at 37° C. Unbound cells were washed off with serum-free medium. Cell adhesion was quantified either by CellTiter 96™ Aqueous Proliferation Assay kit (Promega, Madison, Wis.). Each inhibitor concentration was tested in triplicate, and assays were performed at least three times yielding identical results.

OVCAR-5 cells = assay: Adhesion of OVCAR-5 cells to vitronectin coated plate; format: cell-based, human
Excerpt: FIG. 21. CN and other antagonists of αvβ5 inhibits adhesion of OVCAR-5 cells to vitronectin. Adhesion of cancer cells to the matrix is one of the critical steps of cancer spreading and metastasis. It is well established that integrin αvβ5 mediates adhesion of cells to vitronectin.

T24 cells [3] = assay: Phosphotyrosine immunoblot, T24 cells; format: cell-based, human
Procedure: Cell culture, preparation and stimulation—T24 cells were maintained in RPMI 1640 medium containing 5% fetal bovine serum, and MDA-MB-435 and 293 cells were maintained in Dulbecco's modified Eagle's medium with 10% serum at 37° C. in 5% CO2. Cells were washed with phosphate-buffered saline (PBS) and starved in the appropriate serum-free medium for 6 h at 37° C. Cells were detached by brief treatment with 0.05% trypsin/0.02% EDTA in PBS and collected by centrifugation, resuspended in soybean trypsin inhibitor (1 mg/ml in serum-free medium), and washed in 2% bovine serum albumin/serum-free medium. Cells were maintained in suspension for 1 h in 2% bovine serum albumin/serum-free medium at 37° C. with end-over-end agitation. Quiescent cells (3×10^6/ml) were treated with disintegrins or other reagents while in suspension, or were allowed to adhere to Matrigel (Becton Dickinson, Bedford, Mass.) diluted 1:100 with serum-free medium during treatment.
Lysate preparation and immunoprecipitation—Suspended and adherent cells were washed twice with cold PBS and lysed in cold lysis buffer (50 mM Tris, pH 8.0, 150 mM NaCl, 1% Nonidet P-40, 0.5% deoxycholate, 0.1% SDS, protease inhibitor cocktail, 1 mM sodium pyrophosphate, 1 mM sodium orthovanadate, 50 mM sodium fluoride). After 10-15 min incubation on ice, insoluble material was removed by centrifugation at 14,000 RPM in a microcentrifuge for 15 min. Supernatants were collected and total protein concentrations standardized by the BCA protein assay (Pierce, Rockford, Ill.). Immunoprecipitation was carried out by incubating whole cell lysates (200 μg total protein) with 1.25 μg anti-FAK or anti-CAS mAb 4-6 h at 4° C. followed by 20 μl protein G-agarose overnight at 4° C. Immunoprecipitates were washed 4 times in lysis buffer without inhibitors and dissociated by adding SDS-PAGE sample buffer and boiling 5 min. Whole cell lysates (30 μg total protein) or immunoprecipitates were resolved by 7.5% SDS-polyacrylamide gel electrophoresis and transferred to nitrocellulose membranes. […]

[4] = system: KSY-1 Kaposi's sarcoma cells; assay: Phosphotyrosine immunoblot, KSY-1 Kaposi's sarcoma cells; format: cell-based; details: data not shown
[5] = system: adhesion formation during wound healing; assay: Rabbit model of adhesion formation (uterine horns); format: in vivo; details: Alzet pumps, 10 μl/hr (36 μg/ml)
Procedure: In preliminary studies in a rabbit model of adhesion formation, abrasion and devascularization of the uterine horns of rabbits were employed to induce adhesion formation during wound healing in untreated animals [Rodgers, K. et al., Int. J. Fertil. 35:40 (1990)]. Alzet pumps were employed to continuously deliver CN at a rate of 10 μl/hr (36 μg/ml). […] Therefore, compositions and methods for preventing adhesion formation whereby an amount of CN effective to prevent adhesion formation is administered to a patient in need of such treatment are also contemplated as within the scope of the present invention.

Solubility in water = format: physicochemical
Excerpt: CN may be administered by a variety of heretofore known means suitable for delivery thereof into the blood stream in substantial amounts. Intravenous administration of CN in a suitable liquid vehicle or excipient is presently contemplated as the preferred route of administration. […] Alternatively, CN may be administered orally (in the form of tablets or capsules formulated with a suitable binder or excipient material, or in the form of aqueous or oily suspensions, solutions, emulsions, syrups or elixirs) or as a parenteral suspension. As is well known in the art, adjuvants such as local anesthetics, preservatives, buffering agents, lubricants, wetting agents, colorants, flavorings, fillers and diluents may suitably be included in any of these formulations.

B1: contortrostatin (protein)
chain: DAPANPCCDAATCKLTTGSQCADGLCCDQCKFMKEGTVCRRARGDDLDDYCNGISAGCPRNPFHA
**Q.** With B1 as the molecule, how does the “IC50 of ADP-induced canine platelet aggregation” value (canine PRP) read?
**A.** The value was 1.8 µg/mL.

**Q.** What about the “number of sites, high affinity site” value [1] of the same molecule?
**A.** Its value is 96,000 (±39,000) sites per cell.

**Q.** What about the “number of sites, lower affinity site” value [1] of the same molecule?
**A.** Its value is 480,000 (±90,000) sites per cell.

**Q.** What about the Kd ([1]; read-out: Kd, lower affinity site) of the same molecule?
**A.** Its Kd is 41 nM.

**Q.** And the Kd ([1]; read-out: dissociation constant (Kd), high affinity site)?
**A.** The Kd was 1.1 nM.

**Q.** What about the “adhesion of T24 cells to vitronectin, in words” value (T24 cells [2]; FIG. 19 A, B) of the same molecule?
**A.** Its value is “inhibits adhesion of T24 completely”.

**Q.** What about the “inhibition of adhesion of T24 cells to vitronectin” value (T24 cells [2]; at a concentration less than 10 μg/ml) of the same molecule?
**A.** The value was 100%.

**Q.** What about the “adhesion of OVCAR-5 cells to vitronectin” value (OVCAR-5 cells) of the same molecule?
**A.** Its value is “inhibited”.

**Q.** And the “tyrosine phosphorylation in cells adherent to Matrigel” value (T24 cells [3])?
**A.** Its value is “significant additional increase”.

**Q.** What about the “tyrosine phosphorylation at high concentration” value (T24 cells [3]; 1000 nM) of the same molecule?
**A.** The value was “reduced levels of tyrosine phosphorylation”.

**Q.** And the “tyrosine phosphorylation of 120-140 kDa proteins” value (T24 cells [3]; suspended cells)?
**A.** The value was “also observed”.

**Q.** And the “tyrosine phosphorylation of 120-140 kDa proteins” value [4]?
**A.** Its value is “also observed”.

**Q.** And the adhesion formation [5]?
**A.** The adhesion formation was “decreased adhesion formation”.

**Q.** And the solubility (Solubility in water)?
**A.** The solubility was “soluble in water”.

Source: US6710030B1, “Contortrostain (CN) and methods for its use in preventing metastasis and other conditions” (University of Southern California, priority 1993, dated 2004)
